T1: human TREM2 (human, UniProt Q9NZC2 19-174, limits assumed)
T1 construct: also called triggering receptor expressed on myeloid cells 2
T1 sequence: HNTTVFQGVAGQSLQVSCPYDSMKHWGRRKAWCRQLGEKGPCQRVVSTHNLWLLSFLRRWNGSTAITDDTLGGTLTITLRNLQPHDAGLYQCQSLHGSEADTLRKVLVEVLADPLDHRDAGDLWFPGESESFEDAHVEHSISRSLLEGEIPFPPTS


What was measured:
human TREM2 [1] = target: T1, human TREM2; test: 2nd screen, 2 nM
human TREM2 [2] = target: T1, human TREM2; test: 2nd screen, 10 nM
human TREM2 [3] = target: T1, human TREM2; test: 1st screen, 10 nM Ab
human TREM2 [4] = target: T1, human TREM2; test: 2nd screen, 100 nM
human TREM2 [5] = target: T1, human TREM2; test: 1st screen, 110 nM Ab

Row | Binder | Binding Signal (human TREM2 [1]) | Binding Signal (human TREM2 [2]) | Binding Signal (human TREM2 [3]) | Binding Signal (human TREM2 [4]) | Binding Signal (human TREM2 [5])
1 | V1 (antibody, V domains shown, also called 6E7 variant V1) VH: EVQLVQSGAEVKKPGESLKISCKGSGYSFTSSWIAWVRQMPGKGLEWMGIIYPGDSDTRYSPSFQGQVTISADKSISTAYLQWSSLKASDTAMYFCARSRTFYYDSSDYFDYWGQGTLVTVSS VL: DIQMTQSPSSVSASVGDRVTITCRASQGISSWLAWYQQKPGKAPKLLIYAASSLTNGVPSRFSGSGSGTDFTLTISSLQPEDFATYFCQQADSYPRTFGQGTKLEIK | 1.29 fold over 6E7 parental antibody | 1.92 fold over 6E7 parental antibody | 1.68 fold over 6E7 parental antibody |  | 
2 | V80 (antibody, V domains shown, also called 6E7 variant V80) VH: EVQLVQSGAEVKKPGESLKISCKGSGYSFTSYWIAWVRQMPGKGLEWMGIIYPGDSDTRYSPSFQGQVTISADKSISTAYLQWSSLKASDTAMYFCARQRNFYYDSSDYFDYWGQGTLVTVSS VL: DIQMTQSPSSVSASVGDRVTITCRASQGISSWLAWYQQKPGKAPKLLIYAASSLQNGVPSRFSGSGSGTDFTLTISSLQPEDFATYFCQQADSFPRTFGQGTKLEIK |  |  |  | 0.5 fold over 6E7 parental antibody | 0.59 fold over 6E7 parental antibody
3 | V79 (antibody, V domains shown, also called 6E7 variant V79) VH: EVQLVQSGAEVKKPGESLKISCKGSGYSFTSYWIAWVRQMPGKGLEWMGIIYPGDSDTNYSPSFQGQVTISADKSISTAYLQWSSLKASDTAMYFCARQRTFYYDSSDYFDYWGQGTLVTVSS VL: DIQMTQSPSSVSASVGDRVTITCRASQGISSWLAWYQQKPGKAPKLLIYAASSLQNGVPSRFSGSGSGTDFTLTISSLQPEDFATYFCQQADSFPRTFGQGTKLEIK |  |  |  | 0.52 fold over 6E7 parental antibody | 0.7 fold over 6E7 parental antibody
4 | V12 (antibody, V domains shown, also called 6E7 variant V12) VH: EVQLVQSGAEVKKPGESLKISCKGSGYEFTSYWIAWVRQMPGKGLEWMGIIYPGDSDVRYSPSFQGQVTISADKSISTAYLQWSSLKASDTAMYFCARGRTFYYDSSDYFDYWGQGTLVTVSS VL: DIQMTQSPSSVSASVGDRVTITCRASQGISSWLAWYQQKPGKAPKLLIYAASSLQRGVPSRFSGSGSGTDFTLTISSLQPEDFATYFCQQADSFPRTFGQGTKLEIK |  | 2.58 fold over 6E7 parental antibody |  |  | 
5 | V68 (antibody, V domains shown, also called 6E7 variant V68) VH: EVQLVQSGAEVKKPGESLKISCKGSGYSFTSYWIAWVRQMPGKGLEWMGIIYPGDSDTRYSPSFQGQVTISADKSISTAYLQWSSLKASDTAMYFCARQRTFRYDSSDYFDYWGQGTLVTVSS VL: DIQMTQSPSSVSASVGDRVTITCRASQGISSWLAWYQQKPGKAPKLLIYAASSLQNGVPSRFSGSGSGTDFTLTISSLQPEDFATYFCQQADSFPRTFGQGTKLEIK |  |  |  | 0.43 fold over 6E7 parental antibody | 0.44 fold over 6E7 parental antibody
6 | V70 (antibody, V domains shown, also called 6E7 variant V70; LV-204/HV-15) VH: EVQLVQSGAEVKKPGESLKISCKGSGYSFTSYWIAWVRQMPGKGLEWMGIIYPGDSDTRYSPSFQGQVTISADKSISTAYLQWSSLKASDTAMYFCARQRTFYYDSSDYFDYWGQGTLVTVSS VL: DIQMTQSPSSVSASVGDRVTITCRASQGISSWLAWYQQKPGKAPKLLIYAAGSLQNGVPSRFSGSGSGTDFTLTISSLQPEDFATYFCQQADSFPRTFGQGTKLEIK |  |  |  | 0.84 fold over 6E7 parental antibody | 0.79 fold over 6E7 parental antibody
7 | V66 (antibody, V domains shown, also called 6E7 variant V66) VH: EVQLVQSGAEVKKPGESLKISCKGSGTSFTSYWIAWVRQMPGKGLEWMGIIYPGDSDTRYSPSFQGQVTISADKSISTAYLQWSSLKASDTAMYFCARQRTFYYDSSDYFDYWGQGTLVTVSS VL: DIQMTQSPSSVSASVGDRVTITCRASQGISSWLAWYQQKPGKAPKLLIYAASSLQNGVPSRFSGSGSGTDFTLTISSLQPEDFATYFCQQADSFPRTFGQGTKLEIK |  |  |  | 0.74 fold over 6E7 parental antibody | 0.25 fold over 6E7 parental antibody
8 | V71 (antibody, V domains shown, also called 6E7 variant V71) VH: EVQLVQSGAEVKKPGESLKISCKGSGYSFTSYWIAWVRQMPGKGLEWMGIIYPGDSDTRYSPSFQGQVTISADKSISTAYLQWSSLKASDTAMYFCARQRTFYYDSSDYFDYWGQGTLVTVSS VL: DIQMTQSPSSVSASVGDRVTITCRASQGISSWLAWYQQKPGKAPKLLIYAASSLQNGVPSRFSGSGSGTDFTLTISSLQPEDFATYFCQQADSEPRTFGQGTKLEIK |  |  |  | 0.48 fold over 6E7 parental antibody | 0.37 fold over 6E7 parental antibody
9 | V67 (antibody, V domains shown, also called 6E7 variant V67) VH: EVQLVQSGAEVKKPGESLKISCKGSGYSFTSYWIAWVRQMPGKGLEWMGMIYPGDSDTRYSPSFQGQVTISADKSISTAYLQWSSLKASDTAMYFCARQRTFYYDSSDYFDYWGQGTLVTVSS VL: DIQMTQSPSSVSASVGDRVTITCRASQGISSWLAWYQQKPGKAPKLLIYAASSLQNGVPSRFSGSGSGTDFTLTISSLQPEDFATYFCQQADSFPRTFGQGTKLEIK |  |  |  | 0.84 fold over 6E7 parental antibody | 0.8 fold over 6E7 parental antibody
10 | V69 (antibody, V domains shown, also called 6E7 variant V69) VH: EVQLVQSGAEVKKPGESLKISCKGSGYSFTSYWIAWVRQMPGKGLEWMGIIYPGDSDTRYSPSFQGQVTISADKSISTAYLQWSSLKASDTAMYFCARQRTFYYDSSDYFDYWGQGTLVTVSS VL: DIQMTQSPSSVSASVGDRVTITCRASQGISSYLAWYQQKPGKAPKLLIYAASSLQNGVPSRFSGSGSGTDFTLTISSLQPEDFATYFCQQADSFPRTFGQGTKLEIK |  |  |  | 0.4 fold over 6E7 parental antibody | 0.41 fold over 6E7 parental antibody
11 | V81 (antibody, V domains shown, also called 6E7 variant V81) VH: EVQLVQSGAEVKKPGESLKISCKGSGYSFTSYWIAWVRQMPGKGLEWMGIIYPGDSDTRYSPSFQGQVTISADKSISTAYLQWSSLKASDTAMYFCARQRTFYYDSSDYFDYWGQGTLVTVSS VL: DIQMTQSPSSVSASVGDRVTITCRASQGISSLLAWYQQKPGKAPKLLIYAASSLQNGVPSRFSGSGSGTDFTLTISSLQPEDFATYFCQQADSFPRTFGQGTKLEIK |  |  |  | 0.23 fold over 6E7 parental antibody | 0.17 fold over 6E7 parental antibody
12 | V78 (antibody, V domains shown, also called 6E7 variant V78) VH: EVQLVQSGAEVKKPGESLKISCKGSGYRFTSYWIAWVRQMPGKGLEWMGIIYPGDSDTRYSPSFQGQVTISADKSISTAYLQWSSLKASDTAMYFCARQRTFYYDSSDYFDYWGQGTLVTVSS VL: DIQMTQSPSSVSASVGDRVTITCRASQGISSWLAWYQQKPGKAPKLLIYAASSLQNGVPSRFSGSGSGTDFTLTISSLQPEDFATYFCQQADSFPRTFGQGTKLEIK |  |  |  | 1.11 fold over 6E7 parental antibody | 0.86 fold over 6E7 parental antibody

Second part, the binder after the results:

Row | Binding Signal (human TREM2 [1]) | Binding Signal (human TREM2 [2]) | Binding Signal (human TREM2 [3]) | Binding Signal (human TREM2 [4]) | Binding Signal (human TREM2 [5]) | Binder
13 |  |  |  | 0.79 fold over 6E7 parental antibody | 0.3 fold over 6E7 parental antibody | V82 (antibody, V domains shown, also called 6E7 variant V82) VH: EVQLVQSGAEVKKPGESLKISCKGSGYSFTSYWIAWVRQMPGKGLEWMGIIYPGDSDTRYSPSFQGQVTISADKSISTAYLQWSSLKASDTAMYFCARQRTFYYDSSDYFDYWGQGTLVTVSS VL: DIQMTQSPSSVSASVGDRVTITCRASQGISSWLAWYQQKPGKAPKLLIYAGSSLQNGVPSRFSGSGSGTDFTLTISSLQPEDFATYFCQQADSFPRTFGQGTKLEIK
14 |  |  |  | 0.36 fold over 6E7 parental antibody | 0.33 fold over 6E7 parental antibody | V90 (antibody, V domains shown, also called 6E7 variant V90; LV-206/HV-206) VH: EVQLVQSGAEVKKPGESLKISCKGSGYSFTSEWIAWVRQMPGKGLEWMGIIYPGDSDTRYSPSFQGQVTISADKSISTAYLQWSSLKASDTAMYFCARQRTFYYDSSDYFDYWGQGTLVTVSS VL: DIQMTQSPSSVSASVGDRVTITCRASQGISRWLAWYQQKPGKAPKLLIYAASSLQNGVPSRFSGSGSGTDFTLTISSLQPEDFATYFCQQADSFPRTFGQGTKLEIK
15 |  |  |  | 0.61 fold over 6E7 parental antibody | 0.25 fold over 6E7 parental antibody | V91 (antibody, V domains shown, also called 6E7 variant V91) VH: EVQLVQSGAEVKKPGESLKISCKGSGYSFTSYWIAWVRQMPGKGLEWMGIIYPDDSDTRYSPSFQGQVTISADKSISTAYLQWSSLKASDTAMYFCARQRTFYYDSSDYFDYWGQGTLVTVSS VL: DIQMTQSPSSVSASVGDRVTITCRASQGISSWLAWYQQKPGKAPKLLIYAASSLQNGVPSRFSGSGSGTDFTLTISSLQPEDFATYFCQQADSFPRTFGQGTKLEIK
16 |  |  |  | 1.05 fold over 6E7 parental antibody | 0.35 fold over 6E7 parental antibody | V93 (antibody, V domains shown, also called 6E7 variant V93) VH: EVQLVQSGAEVKKPGESLKISCKGSGYSFTSYWIAWVRQMPGKGLEWMGIIYPGDSDTRYSPSFQGQVTISADKSISTAYLQWSSLKASDTAMYFCARQRTFYYDSSDYFDYWGQGTLVTVSS VL: DIQMTQSPSSVSASVGDRVTITCRASQGISGWLAWYQQKPGKAPKLLIYAASSLQNGVPSRFSGSGSGTDFTLTISSLQPEDFATYFCQQADSFPRTFGQGTKLEIK
17 |  |  |  | 0.65 fold over 6E7 parental antibody | 0.22 fold over 6E7 parental antibody | V92 (antibody, V domains shown, also called 6E7 variant V92) VH: EVQLVQSGAEVKKPGESLKISCKGSGYSFTSYWIAWVRQMPGKGLEWMGIIYPGDSDTRYSPSFQGQVTISADKSISTAYLQWSSLKASDTAMYFCARQRTFHYDSSDYFDYWGQGTLVTVSS VL: DIQMTQSPSSVSASVGDRVTITCRASQGISSWLAWYQQKPGKAPKLLIYAASSLQNGVPSRFSGSGSGTDFTLTISSLQPEDFATYFCQQADSFPRTFGQGTKLEIK
18 |  |  |  | 0.29 fold over 6E7 parental antibody | 0.2 fold over 6E7 parental antibody | V83 (antibody, V domains shown, also called 6E7 variant V83) VH: EVQLVQSGAEVKKPGESLKISCKGSGYSFTSYWIAWVRQMPGKGLEWMGIIYPGDSDTRYSPSFQGQVTISADKSISTAYLQWSSLKASDTAMYFCARQRTFYYDSSDYFDYWGQGTLVTVSS VL: DIQMTQSPSSVSASVGDRVTITCRASQGISSWLAWYQQKPGKAPKLLIYAASSLQNGVPSRFSGSGSGTDFTLTISSLQPEDFATYFCQQAVSFPRTFGQGTKLEIK
19 |  |  |  | 0.87 fold over 6E7 parental antibody | 0.31 fold over 6E7 parental antibody | V94 (antibody, V domains shown, also called 6E7 variant V94) VH: EVQLVQSGAEVKKPGESLKISCKGSGYSFTSYWIAWVRQMPGKGLEWMGIIYPGDSDTRYSPSFQGQVTISADKSISTAYLQWSSLKASDTAMYFCARQRTFYYDSSDYFDYWGQGTLVTVSS VL: DIQMTQSPSSVSASVGDRVTITCRASQGISSWLAWYQQKPGKAPKLLIYAAASLQNGVPSRFSGSGSGTDFTLTISSLQPEDFATYFCQQADSFPRTFGQGTKLEIK
